Data: the supplement of paper PMC9170038

Test system: MS2 coat protein
Experiment: apparent KD of MS2 coat protein; designed switch direction (-1 OFF switch, 1 ON switch): 1; higher = weaker reporter binding
Procedure, shortened: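 Transcription of designed RNA switches on Illumina chips was done by stalled E. coli RNA polymerase. SNAP-549-labelled MS2 coat protein was then titrated in doubling steps from 0.7 or 1.5 nM to 3 µM, with steps of 0.8–1.5 h at the lowest and 10–20 min at the highest concentration. The per-design median over clusters of curve-fitted normalised fluorescence is reported as apparent KD.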

[1] = input ligand: microRNA oligo, concentration not stated
[2] = Eterna round: R95, input ligand: FMN 200 uM
[3] = Eterna round: R95, input ligand: microRNA oligo, concentration not stated
[4] = Eterna round: R95, input ligand: none

Row | Sequence | apparent KD of MS2 coat protein (input ligand: FMN 200 uM) [µM] | apparent KD of MS2 coat protein [1] [µM] | apparent KD of MS2 coat protein (input ligand: none) [µM] | apparent KD of MS2 coat protein [2] [µM] | apparent KD of MS2 coat protein [3] [µM] | apparent KD of MS2 coat protein [4] [µM]
1 | AGCUAGUACGAAGGAUAUACAAACAUGAGGAUCACCCAUGUAUACAUGGUUUGUUGUGACUACAUGUAGAAGGUCGUACUAGCA [SameState NG2 #16] (Eterna round: R96, puzzle: Same State NG 2) | 0.362 | 0.773 | 0.987 | – | – | –
2 | AGCUAUCGAAAACGAUAGCAAAAGCAUGUACAUGAGGAUCACCCAUGUCAUGUACAGGCUUUUUGCUCGUCUUAAAA [Zipper 23 - 8] (puzzle: Sensor for hsa-mir-208a) | – | – | – | 0.0264 | 0.0183 | 0.124
3 | AGCUAUCGAAAACGAUAGCAAAAGCAUGUACAUGAGGAUCACCCAUGUCGUGUACAAGCUUUUUGCUCGUCUUAAAA [Zipper 23 - 5] (puzzle: Sensor for hsa-mir-208a) | – | – | – | 0.522 | 0.0139 | 0.534
4 | AGCUAUCGCGUACGAUAGCUGAAGCGUGUACAUGAGGAUCACCCAUGUCAUGUACAAGCUUUUUGCUCGUCUUAUUG [JL-shm-2.28 JL mod] (puzzle: Sensor for hsa-mir-208a) | – | – | – | 0.249 | 0.0182 | 0.296
5 | AGCUAUGGAAAACUAUAGCAAAAGUAUGUACAUGAGGAUCACCCAUGUCAUGUACAAGCUUUUUGCUCGUCUUAAAA [ak 6 mod of one Eli's designs.] (puzzle: Sensor for hsa-mir-208a) | – | – | – | 0.201 | 0.0186 | 0.189
6 | AGCUAUUAAUCAGGAUAUAGUGACAUGAGGAUCACCCAUGUAUUGAUGAUUAAAUGUGGUCACUACUAGAAGGGAUUACUAACA [SameState NG2 #49] (Eterna round: R96, puzzle: Same State NG 2) | 0.037 | 0.0514 | 0.0671 | – | – | –
7 | AGCUAUUAAUCAGGAUAUGGUGACAUGAGGAUCACCCAUGUAUUGAUGAUUAAAUGUGGUCACUACCAGAAGGGAUUACUAACA [SameState NG2 #50] (Eterna round: R96, puzzle: Same State NG 2) | 0.0342 | 0.221 | 0.26 | – | – | –
8 | AGCUUUUAAUUAGGAUAUGGUCACAUGAGGAUCACCCAUGUAACGAUGAUAUAAUGUGGUCAAGACUAGAAGGGAUUGCUAACA [SameState NG2 #68] (Eterna round: R96, puzzle: Same State NG 2) | 0.589 | 0.357 | 0.355 | – | – | –
9 | AGGAAACAUGAGGAUCACCCAUGUAAAAAAGUGGGAGGAUAUACUAGAAGAAACAAAAUAGUAGAAGGCCUAAAAA [75%, Ex sub1, 32] (Eterna round: R96, puzzle: Same State 1) | 0.0191 | 0.0377 | 0.0423 | – | – | –
10 | AGGAAACAUGAGGAUCACCCAUGUAAAAAUAUGGGAGGAUAUGCGAAAAGAAACAAAGAAGCAGAAGGCCUAAGAA [75%, Ex5 sub 1, 7] (Eterna round: R96, puzzle: Same State 1) | – | 0.0857 | – | – | – | –
11 | AGGAGACAUGAGGAUCACCCAUGUACUUCAUAAGGAGAGAACGAGGAUAUGUAGAGAGAGAGGGAACAGAAGGUGUGAGAGGAA [Default title] (Eterna round: R96, puzzle: Same State NG 3) | 0.0187 | 0.0162 | 0.0187 | – | – | –
12 | AGGCUCAGACGAGGAUAUAUGUGGUCACAUGAGGAUCACCCAUGUCUCGAGCUUCGGCUCGAGGCAUAGAAGGUGUCUGAGCCA [SSNG2/5-C1] (Eterna round: R96, puzzle: Same State NG 2) | 0.115 | 0.0425 | 0.0257 | – | – | –
13 | AGGCUCAGAGCAGGAUAUAUGUGAUCACAUGAGGAUCACCCAUGUCUCGAGCUUCGGCUCGAGACAUAGAAGGGCUCUGAGCCA [SSNG2/3-B1] (Eterna round: R96, puzzle: Same State NG 2) | 2.49 | 0.0393 | 0.0283 | – | – | –
14 | AGGUGAUAUGGAAAGGAUAUACGGUUUAGGACAUGAGGAUCACCCAUGUGGAAGAUGGCGAGAGAGUAGAAGGUUCGAAAUUGGU [JR_SS@_Sub024] (puzzle: Same State 2) | – | – | – | 0.0434 | 0.075 | 0.0774
15 | AGUAGUUUAACAUGAGGAUCACCCAUGUAUUUUUCUGUAACCUAGGAUAUGGGCGUUGUAUUUAUCCAGAAGGAGGAUCGUUUA [JR_SSNG3_Sub048] (Eterna round: R96, puzzle: Same State NG 3) | 0.0303 | 0.0283 | 0.0311 | – | – | –
16 | AGUAUACAUGAGGAUCACCCAUGUCUGUAACGGACAGGAUAUGCGUUGCAUCACUGUAAUGCAGAAGGGUCCUGUA [Same State 1 - Mod of JMF's solution 1 v.2] (Eterna round: R96, puzzle: Same State 1) | 0.0505 | 0.148 | 0.202 | – | – | –
17 | AGUAUACAUGAGGAUCACCCAUGUCUGUAACGGACAGGAUAUGCGUUGCAUCACUGUAAUGCAGAAGGGUCCUGUA [Same State 1 - Mod of JMF's solution 1 v.2] (puzzle: Same State 1) | – | – | – | – | 0.179 | –
18 | AGUAUUUAUGCAGGAUAUGAUUAACAUGAGGAUCACCCAUGUGGUGUUGUGAGUAAGGAGAGUGAUCAGAAGGGCAUUUUUUUU [JMF's solution 74] (Eterna round: R96, puzzle: Same State NG 2) | 0.512 | 0.324 | 0.38 | – | – | –
19 | AGUCCAGCCAAAGCUGGACAAAAGCAUGUACAUGAGGAUCACCCAUGUUCAUGUACAAGCUUUUUGCUCGUCUUAAA [Mat - hsa-mir-208a - Mod of JL - 56] (puzzle: Sensor for hsa-mir-208a) | – | – | – | 0.413 | 0.0161 | 0.465
20 | AGUCCAGCCUGAGCUGGACAAAAGCAUGUACAUGAGGAUCACCCAUGUCAUGUACAAGCUUUUUGCUCGACUUAAAA [Mat - hsa-mir-208a - Mod of JL - D10] (puzzle: Sensor for hsa-mir-208a) | – | – | – | 0.569 | 0.0142 | 0.624
21 | AGUCCAGCCUGAGCUGGACAAAAGCAUGUACAUGAGGAUCACCCAUGUCAUGUACAAGCUUUUUGCUCGUAUUAAUA [Mat - hsa-mir-208a - Mod of JL - D30] (puzzle: Sensor for hsa-mir-208a) | – | – | – | 0.491 | 0.0127 | 0.528
22 | AGUCCAGCCUGAGCUGGACAAAAGCAUGUACAUGAGGAUCACCCAUGUCAUGUACAAGCUUUUUGCUCGUCUUAUAA [Mat - hsa-mir-208a - Mod of JL - D25] (puzzle: Sensor for hsa-mir-208a) | – | – | – | 0.643 | 0.0149 | 0.704
23 | AGUCCAGCCUGAGCUGGACAAAAGCAUGUACAUGAGGAUCACCCAUGUCAUGUACAAGCUUUUUGUUCGUCUUAAAA [Zipper 46 - 12] (puzzle: Sensor for hsa-mir-208a) | – | – | – | 0.794 | 0.0148 | 0.5
24 | AGUCCAGCCUGAGCUGGACAAAAGCAUGUACAUGAGGAUCACCCAUGUCAUGUACAGGCUUUUUGCUCGUCUUAAAA [Zipper 46 - 8] (puzzle: Sensor for hsa-mir-208a) | – | – | – | 0.213 | 0.0161 | 0.3
25 | AGUCCAGCCUGAGCUGGACAAAAGCAUGUACAUGAGGAUCACCCAUGUUCAUGUACAAGCUUUUUGCUCGUCUAAAU [Mat - hsa-mir-208a - Mod of JL - 46] (puzzle: Sensor for hsa-mir-208a) | – | – | – | 0.449 | 0.0155 | 0.682
26 | AGUCCAGCCUGAGCUGGACAGAAGCAUGUACAUGAGGAUCACCCAUGUCAUGUACAAGCUUUUUGCUCGUCUUAAAA [Zipper 46 - 3] (puzzle: Sensor for hsa-mir-208a) | – | – | – | 0.422 | 0.0159 | 0.586
27 | AGUCCAGCGAAAGCUGGACAAAAGCAUGUACAUGAGGAUCACCCAUGUUCAUGUACAAGCUUUUUGCUCGUCUUAAA [Mat - Sensor - JL mod - D95] (Eterna round: R96, puzzle: Sensor for hsa-mir-208a) | 0.485 | 0.0141 | 0.467 | – | – | –
